Data as given in patent US20220112244A1 (DOMPE FARMACEUTICI S P A, published 2022).

T1: mouse IL-17A (mouse, UniProt Q62386 26-158)
T1 construct: also called mIL-17 Å; mIL17
T1 sequence (looked up): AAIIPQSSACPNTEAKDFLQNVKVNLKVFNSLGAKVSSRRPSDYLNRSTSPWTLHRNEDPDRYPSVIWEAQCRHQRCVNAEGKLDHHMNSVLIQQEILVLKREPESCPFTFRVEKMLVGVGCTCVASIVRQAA


Legend:
mouse IL-17A [1] = target: T1, mouse IL-17A; experiment: SPR, mouse IL-17A amine-coupled to the chip (3000 RU), peptide 62.5-1000 nM as analyte, Scatchard analysis of RU at equilibrium
[2] = target: T2, IL-17A (agonist in the IL-17RA/IL17RC dimerization assay) (UniProt Q16552 24-155); experiment: cell-based or functional assay
[3] = target: T2, IL-17A (agonist in the IL-17RA/IL17RC …); experiment: cell-based or functional assay; remark: listed apart in the source
mouse IL-17A [4] = target: T1, mouse IL-17A; experiment: SPR on immobilised mouse IL-17A

T2 sequence (Q16552 24-155 limits assumed): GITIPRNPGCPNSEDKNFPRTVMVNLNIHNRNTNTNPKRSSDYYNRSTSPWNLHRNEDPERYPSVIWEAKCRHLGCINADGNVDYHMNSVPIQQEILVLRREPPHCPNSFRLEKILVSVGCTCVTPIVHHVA

| Kd (mouse IL-17A [1]) [nM] | IC50 in IL-17RA/IL7RC dimerization assay [2] [nM] | IC50, % inhibition of IL-17A-induced IL-17RA/IL17RC dimerization (PathHunter cytokine receptor assay) [3] [nM] | fold affinity against SEQ ID NO: 1 (mouse IL-17A [4]) [fold] | Binder |
| --- | --- | --- | --- | --- |
| 3700 | – | – | – | Ac-IHVTIPADLWDWINK-NH2 [High Affinity Peptide (HAP), peptide of SEQ ID NO: 1] |
| 130 | < 200 | 191 | 28 | Ac-VHVTIPADLWDWINK-NH2 (HAP with Ile 1 replaced by Val) [peptide of SEQ ID NO: 2] |
